Data as given in US20020119154A1 (University of Pennsylvania, published 2002).

B1: human prolactin (hPRL) (ligand, UniProt P01236 29-227, looked up)
chain: LPICPGGAARCQVTLRDLFDRAVVLSHYIHNLSSEMFSEFDKRYTHGRGFITKAINSCHTSSLATPEDKEQAQQMNQKDFLSLIVSILRSWNEPLYHLVTEVRGMQEAPEAILSKAVEIEEQTKRLLEGMELIVSQVHPETKENEIYPVWSGLPSLQMADEESRLSAYYNLLHCLRRDSHKIDNYLKLLKCRIIHNNNC
notes: Serum PRL and added hPRL are treated as one molecule; also called serum PRL; plasma PRL
B2: recombinant human prolactin binding protein (rhPRLBP) (receptor, UniProt P16471 25-234, looked up)
chain: QLPPGKPEIFKCRSPNKETFTCWWRPGTDGGLPTNYSLTYHREGETLMHECPDYITGGPNSCHFGKQYTSMWRTYIMMVNATNQMGSSFSDELYVDVTYIVQPDPPLELAVEVKQPEDRKPYLWIKWSPPTLIDLKTGWFTLLYEIRLKPEKAAEWEIHFAGQQTEFKILSLHPGQKYLVQVRCKPDHGYWSAWSPATFIQIPSDFTMND

Key:
[1] = target: B2; experiment: surface plasmon resonance, various concentrations of rPRLBP; binding site I of PRL; rPRLBP in solution at various concentrations
human prolactin (hPRL) = target: B1; experiment: cell-based or functional assay

Binder | Kd [1] | rat Nb2-11C lymphoma cell proliferation (tritiated thymidine uptake), 50 pM hPRL, 0-100 nM rhPRLBP (human prolactin (hPRL))
B1 | 0.0134 µM | –
B2 | – | 3 fold
